Test results: paper PMC7668254

Target: T1, DROSHA fragment D3;DGCR8 fragment G1 (human;human, UniProt Q9NRR4;Q8WYQ5 390-1365;728-750, |)
T1 sequence 1: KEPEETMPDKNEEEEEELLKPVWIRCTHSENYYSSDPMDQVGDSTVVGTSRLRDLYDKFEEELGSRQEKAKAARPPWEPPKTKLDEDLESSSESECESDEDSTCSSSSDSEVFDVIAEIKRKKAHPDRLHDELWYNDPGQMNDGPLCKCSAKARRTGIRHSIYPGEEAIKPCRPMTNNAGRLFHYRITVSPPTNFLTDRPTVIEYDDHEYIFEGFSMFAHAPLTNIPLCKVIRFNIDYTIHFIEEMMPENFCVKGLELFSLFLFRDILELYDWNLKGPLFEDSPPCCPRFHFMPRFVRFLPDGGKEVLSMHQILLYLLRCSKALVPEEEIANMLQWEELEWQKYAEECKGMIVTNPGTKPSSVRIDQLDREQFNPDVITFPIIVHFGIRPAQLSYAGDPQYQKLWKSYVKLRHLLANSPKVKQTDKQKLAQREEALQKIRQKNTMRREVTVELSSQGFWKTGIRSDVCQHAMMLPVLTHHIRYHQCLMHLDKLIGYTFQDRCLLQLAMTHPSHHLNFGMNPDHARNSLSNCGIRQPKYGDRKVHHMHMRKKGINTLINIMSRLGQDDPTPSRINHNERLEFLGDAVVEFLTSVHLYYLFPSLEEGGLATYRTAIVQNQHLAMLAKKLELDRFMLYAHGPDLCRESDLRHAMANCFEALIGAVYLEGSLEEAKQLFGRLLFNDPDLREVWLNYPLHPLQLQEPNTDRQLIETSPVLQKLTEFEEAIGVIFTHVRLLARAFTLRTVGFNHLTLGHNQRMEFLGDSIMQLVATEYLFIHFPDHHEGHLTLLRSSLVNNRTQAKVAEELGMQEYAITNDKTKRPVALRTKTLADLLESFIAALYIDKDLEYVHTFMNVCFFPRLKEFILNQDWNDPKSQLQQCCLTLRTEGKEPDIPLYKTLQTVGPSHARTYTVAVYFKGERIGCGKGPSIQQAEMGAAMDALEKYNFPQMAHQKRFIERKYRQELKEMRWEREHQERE
T1 sequence 2: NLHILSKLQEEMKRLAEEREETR
Assay: EMSA; 2 mM EDTA; 1.5 pmol RNA, 5-25 pmol D3-G1 in 10 uL; 50 mM Tris-HCl pH 7.5, 150 mM NaCl, 0.2 mg/ml BSA, 10% glycerol, 2 mM EDTA, 1 mM DTT; on ice 60 min; 4% native PAGE in 1x TBE at 4 C
Details: protein: recombinant;recombinant; tags: ;; copies: 1;2; hairpin

B1: Short pri-mir-146a_C (structured_RNA)
RNA: GGAGAACUGAAUUCCAUGGGUUGUGUCAGUGUCAGACCUCUGAAAUUCAGUUCUUCAG
B1: binds.
